Source: paper PMC2602803
Read-outs that look alike come from different tables or passages of the source.

Tests used:
UHRF1 SRA domain (NP95) [1] = target: T1, UHRF1 SRA domain (NP95) (mouse, UniProt Q8VDF2 419-628); assay: X-ray crystallography
T1 sequence: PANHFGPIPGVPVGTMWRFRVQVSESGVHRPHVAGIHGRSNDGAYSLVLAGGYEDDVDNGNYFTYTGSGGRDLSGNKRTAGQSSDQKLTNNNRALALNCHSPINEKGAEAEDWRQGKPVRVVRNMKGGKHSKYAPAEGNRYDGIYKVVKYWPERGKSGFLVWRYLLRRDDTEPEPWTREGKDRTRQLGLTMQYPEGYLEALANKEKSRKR

UHRF1 SRA domain (NP95) [2] = target: T1, UHRF1 SRA domain (NP95); assay: X-ray crystallography; remark: listed apart in the source

B1: unmethylated CpG 12-bp duplex (dsDNA)
DNA 1: AACTGCGCAGTT
DNA 2: AACTGCGCAGTT
Q: Does B1 bind (UHRF1 SRA domain (NP95) [1])?
A: binds

B2: hemimethylated CpG 12-bp duplex (dsDNA)
DNA 1: TCCATGCGCTGAC
DNA 2: GTCAGCGCATGG
modifications: 5-methylcytosine at position 6 of strand 2 (…); strand 1 unmethylated
Q: Does B2 bind (UHRF1 SRA domain (NP95) [2])?
A: binds
